The numbers were not newly measured in US20150174267A1, “COMPOSITIONS AND METHODS FOR THE TRANSPORT OF THERAPEUTIC AGENTS” (Angiochem Inc., priority 2009, published 2015), which cites them from elsewhere.

The conditions of data set [1]: for efficient transport across the BBB: efficiently = at least as efficiently as Angiopep-6.
The test system of data set [2] is liver, lung, kidney, spleen, and muscle cells.

Where no end group is shown, it is not given here.

With “Angiopep-4a: targeting polypeptide of Table 1, SEQ ID NO:108 (RFFYGGSRGKRNNFKTEEY)”, in data set [1], the “efficient transport across the BBB” value is “cross the mammalian BBB efficiently”.
Regarding “Angiopep-5: targeting polypeptide of Table 1, SEQ ID NO:110 (RFFYGGSRGKRNNFRTEEY; not fully specified (N-terminus))”, in data set [1], the “efficient transport across the BBB” value is reported as “cross the mammalian BBB efficiently”.
With `COc1cc([C@@H]2c3cc4c(cc3[C@@H](O[C@@H]3O[C@@H]5CO[C@@H](C)O[C@H]5[C@H](O)[C@H]3O)[C@H]3COC(=O)[C@H]23)OCO4)cc(OC)c1OP(=O)(O)O` [Etoposide phosphate, etoposide phosphate], the “water solubility compared to etoposide” value is “improved water solubility”.
Regarding “Angiopep-2: targeting polypeptide of Table 1, SEQ ID NO:97”, the “efficient transport across the BBB” value in data set [1] is “cross the mammalian BBB efficiently”.
For the molecule “Angiopep-7: targeting polypeptide of Table 1, SEQ ID NO:112 (TFFYGGSRGRRNNFRTEEY)”, the “efficient transport across the BBB” value in data set [1] is listed as “does not cross the BBB efficiently”. The “efficient transport into particular cell types” value in data set [2] was “efficiently transported into liver, lung, kidney, spleen, and muscle cells”.
Consider “Angiopep-1: targeting polypeptide of Table 1, SEQ ID NO:67 (TFFYGGCRGKRNNFKTEEY; not fully specified (C-terminus))”, for which, in data set [1], the “efficient transport across the BBB” value is on record as “cross the mammalian BBB efficiently”.
“Angiopep-4b: targeting polypeptide of Table 1, SEQ ID NO:109 (RFFYGGSRGKRNNFKTEEY; not fully specified (N-terminus))”: the “efficient transport across the BBB” value in data set [1] was “cross the mammalian BBB efficiently”.
Consider “Angiopep-6: targeting polypeptide of Table 1, SEQ ID NO:111 (TFFYGGSRGKRNNFRTEEY)”, for which the “efficient transport across the BBB” value in data set [1] is listed as “cross the mammalian BBB efficiently”. Also, in data set [1] (relative to Angiopep-1 (250 nM), in situ brain perfusion assay of US 2009/0016959), the “transport across the BBB relative to that of Angiopep-1” value was 38.5%.
